Laboratory results from PMC2572620, “The Mycoplasma pneumoniae MPN229 gene encodes a protein that selectively binds single-stranded DNA and stimulates Recombinase A-mediated DNA strand exchange” (BMC Microbiology, 2008).

Target: the molecule itself
Assay: SEC; Sephadex G-150 column; 500 ul of untagged Mpn SSB at 0.3 mg/ml in 50 mM Tris-HCl pH 7.5, 135 mM NaCl; calibrated with BSA, ovalbumin and cytochrome C; fractions analysed by SDS-PAGE

B1: Mpn single-stranded DNA-binding protein (Mpn SSB), natural non-tagged form (natural protein, Mycoplasma pneumoniae, UniProt P75542 1-166, looked up)
chain: MNRVFLFGKLSFDPNKLQTRTNNIGASFSLACIDSSGFNDSKSYIRITAWGKVASFVLTLKPGDSVFVEGRLSTYKMNNRSDDPNSKATYALQVIADKVYRPDEENSLEQPVDKATVIDSPFLAAKTNATENELAQAFPISLDDEDDDINPILNNDSQLEEESDDE
notes: 166 amino acids, 18.4 kDa; ORF amplified from genomic DNA of strain MAC (ATCC 15492) with primers from the initiation codon to the termination codon; expressed in its natural, non-tagged form; Cloned from strain MAC; the genome entry for MPN229 is of strain M129; also called MPN229 protein product; M. pneumoniae SSB; source: E. coli BL21(DE3), pET-11c-MpnSSB, purified (ammonium sulphate …)
In the case of B1, the “stoichiometry N” value is reported as 4.
